# Reference: patent publication US20240181094A1, “[161Tb]-BASED RADIOPEPTIDES” (priority 2021, published 2024)
# Starred links: 1 amine or outer side, 2 acyl side, 3 side chain; linkers in the order of their positions; H or OH if unused. Positions of bridges follow the written chain, without caps; N, C: chain ends. Non-standard residues stand in square brackets, D forms with d. Residues, ends and D or L forms follow the SMILES beside them. *: point of attachment. DOTA = O=C(O)CN1CCN(CC(=O)O)CCN(CC(=O)*)CCN(CC(=O)O)CC1; X1 = NC(=O)Nc1ccc(CC(N[*:1])C(=O)[*:2])cc1; Phe(4-Cl) = N[CH](Cc1ccc(Cl)cc1)C(=O)O
# Legend:
# [1] = tested on: AR42J tumor-bearing mice; conditions: female, CD-1 Foxn-1/nu athymic nude, mouse, in vivo, iv, 1 nmol/mouse, 24 h
# [2] = tested on: AR42J tumor-bearing mice; experiment: Biodistribution studies: comparison of 161Tb- and 177Lu-labeled peptides; conditions: 1 nmol/mouse, 2 h p.i.
# [3] = in vivo; conditions: female, mouse, iv, 1 nmol/mouse, total radioactivity
smiles,measurement,setting,value
CC(O)C1NC(=O)C(CCCCN)NC(=O)C(Cc2ccc(NC(N)=O)cc2)NC(=O)C(Cc2ccc(O)cc2)NC(=O)C(NC(=O)C(Cc2ccc(Cl)cc2)NC(=O)CN2CCN(CC(=O)O)CCN(CC(=O)O)CCN(CC(=O)O)CC2)CSSCC(C(=O)NC(Cc2ccc(O)cc2)C(N)=O)NC1=O (stereo not shown) [metal not drawn] ({DOTA}-[Phe(4-Cl)]CY[X1]KTCY-NH2; disulfide 2-7; configuration not given here),Muscle uptake,[1],≤0.10 % IA/g
same,Femur uptake,[2],0.20 ± 0.05 % IA/g
same,Lung uptake,[2],1.0 ± 0.2 % IA/g
same,tissue uptake at 2 h,[3]; CD-1 Foxn-1/nu athymic nude,≤ 0.1 %ID/g
same,tissue uptake at 24 h,[3]; CD-1 Foxn-1/nu athymic nude,≤ 0.1 %ID/g
same,tissue uptake at 2 h,[3]; athymic nude CD-1 Foxn-1/nu,≤ 0.1 %ID/g
same,tissue uptake at 24 h,[3]; athymic nude CD-1 Foxn-1/nu,≤ 0.1 %ID/g
